Laboratory results from a protein production outcome set (Wang et al. 2014).

Assay: label from the status in PepcDB records

Sequence | protein production
MSLSLLVIGSLAFDDIETPFGRSDNTLGGSSTYIALSASYFTDEPIRMVGVVGSDFGKEHFDLLHAKNIDTRGIQVIEDGKTFRWAGRYHYDMNTRDTLDTQLNVFAEFDPHVPQYYRDSKFVCLGNIDPELQLKVLDQIDDPKLVVCDTMNFWIEGKPEELKKVLARVDVFIVNDSEARLLSGDPNLVKTARIIREMGPKTLIIKKGEHGALLFTDNGIFAAPAFPLESIYDPTGAGDTFAGGFIGHLARCGNTSEAEMRKAVLYGSAMASFCVEQFGPYRYNDLDLLEVDDRYQSFLELSRIEEGHHHHHH | not failed
MSLSLYDSAHSLDGKSGWDTPVFSMKDSMDRNPMVTEAWEALCQSQVYFRGKPVGTIAAYDHASEEVLNYDQVFVRDFVPSALAFLMNGEPEIVKNFLLKTLHIQGQDKMIDKFKLGDGAMPASFKVLHNPIKKTDTIIADFGESAIGRVAPVDSGFWWIILLRAYTKSTGDHSLAERPECQKGMRLILSLCLSEGFDTFPTLLCADGCSMVDRRMGIYGYPIEIQALFFMALRSALSMLKHDSEGKEFMEKIVKRLHALSFHMRSYFWLDFQQLNDIYRYKTEEYSHTAVNKFNVIPDSIPDWIFDFMPLRGGYFVGNVSPARMDFRWFALGNCIAILSSLATPEQSMAIMDLIEARWEELVGEMPLKICYPAMESHEWGIVTGCDPKNTRWSYHNGGSWPVLLWLLTAASIKTGRPQIARRAIELAEARLLKDGWPEYYDGKSGRFIGKQARKSQTWSIAGYLVAKMMMDDPTHVGMISMEEEKHMKPPLRRSSSWT | failed
MSLSMPVPEGADAAAKEMALSDMIPYTVHYDDESVITKDDGLVQVIKLDGLYFESLTAEQIKQFERRRNTVLRSIANSDRGVYVHLIRRKVNLYPAGEGGTWFARRFNQAWRERYNKRSFYVNEIYISIVRNRFRQGAPGILDRAFSLVSGSKITKEDLESFEEQAKDVNEAANLVVQTLSGYGARKLRIQRRPEFVLDRVSRADAQVAVERFKMSWQEFQRSHGHHEVYSRDEVLDYLGEDFSEIGGFLHYLVNLEDERVPVTEMQLDRTLAVSYLDFKMLSNMMAVQNLSGTRAGAMLSMAEWPARTPSRMLDEFLKQPVEYIITQSFFFTDRISAEHDMRQERRRIAVNDREGVAEEDKDEITKGLQDLTRGRSVNGLHHLTMLVHVPATTQFADPIENKRQTIADLDGAVGLLKKAFVNLGVKPVREWFAMETFFWAQLPGQAQHFMGRRGKIKSGNFAGFASLHNFAVGKIDGNLWGPAIMPFETESGTAYYFSFHREMEGMVAGHTAFTADTGAGKTTLLAALIAMGDKAYPRVFWFDNREGAKVFMCAMGGQHTTLTVQGSTGWNPMKLPDTPENRAYLVELLTLMRTCYGGKIVPDDIDRFKKAVHENYALAYPDRRLLNVAWCFGQGELAKDMRVWHGANGIEGANWGVFDNEHDNIDLTNCRHYCYEMRQLIKDGTARPELPVVLSYPFHRIEQSMNGEPFILVLEEGQNLVKHAYWREKIDSYIMQIRRKNGLLVFVTPDAKYLYCETDSIQKQTATKIYLPNGEAKRTDLVDVLGLTPAEYEFVRDTPPENRTFLIRRGNESIKAKFDLSDMPEFIPVLSSNDKGVALMEEIIRELETDDPEQWVPVFMERALAKNTHNLKQKGA | failed
MSLSNTPIELKGSSFTLSVVHLHEAEPEVIRQALEDKIAQAPAFLKHAPVVINVSGLESPVNWPELHKIVTSTGLRIIGVSGCKDASLKVEIDRMGLPLLTEGKEKAVRPAPEGHHHHHH | not failed
MSLSSKLRLQLDAHASIHENVRRLLQFTTSIMEANEEGIRKDIDSEFLHDFRVAIRRSRSILRLLNGVFDPEKTAWMLAGLRELGKRTNDLRDSDVYLLRREEYTSLLPPSLRPALDPFFSDLEADKRLHHRQFCRYLTGREYSGFMTSLKEFIAEGELPDPETAPLAAEPTGDVAAKTIRKALKKVLVHGRRTGSETSDAELHELRIDCKKLRYLLEFFASLFPPKATAQVLRQMKTLQDNLGTFVDLTVQMEFLQSRLETIPADRGGISEAAAIGGLLTTLYRKREKVREHFHEIFSGFDSNETGELFDELLTGLAEGHHHHHH | not failed
MSLSVAIIGPGAVGTTIAYELQQSLPHTTLIGRHAKTITYYTVPHAPAQDIVVKGYEDVTNTFDVIIIAVKTHQLDAVIPHLTYLAHEDTLIILAQNGYGQLEHIPFKNVCQAVVYISGQKKGDVVTHFRDYQLRIQDNALTRQFRDLVQDSQIDIVLEANIQQAIWYKLLVNLGINSITALGRQTVAIMHNPEIRILCRQLLLDGCRVAQAEGLNFSEQTVDTIMTIYQGYPDEMGTSMYYDIVHQQPLEVEAIQGFIYRRAREHNLDTPYLDTIYSFLRAYQQNEGHHHHHH | not failed
MSLSVKILFKNATVFPITSRPFKGDVLVSNGKVEKVGENIEDPDAEIVDLTGKFLFPGFVDAHSHIGLFEEGVGYYYSDGNEATDPVTPHVKALDGFNPQDPAIERALAGGVTSVMIVPGSANPVGGQGSVIKFRSIIVEECIVKDPAGLKMAFGENPKRVYGERKQTPSTRMGTAGVIRDYFTKVKNYMKKKELAQKEGKEFTETDLKMEVGEMVLRKKIPARMHAHRADDILTAIRIAEEFGFNLVIEHGTEAYKISKVLAEKKIPVVVGPLLTFRTKLELKDLTMETIAKLLKDGVLIALMCDHPVIPLEFATVQAATAMRYGAKEEDLLKILTVNPAKILGLEDRIGSIEPGKDADLVVWSGHPFDMKSVVERVYIDGVEVFRREGHHHHHH | not failed
MSLSYRIDVLLFNKFETLDVFGPVEIFGNLQDDFELNFISSDGGLVESSQKVRVETSLYTRDENIEKILFVPGGSGTREKVNDDNFINFIGNMVKESKYIISVCTGSALLSKAGILNGKRATTNKRSFKWVTEQNEDVLWVKEARWVKDGNIYTSSGVSAGIDMTLGFIEDLIGKEKALEISRSIEYFWNEDSNYDPFSKIYGEGHHHHHH | not failed
MSLTASDDLPGVLIVEDGRLAAATLRIQLESLGYDVLGVFDNGEEAVRCAPDLRPDIALVDIMLCGALDGVETAARLAAGCNLPIIFITSSQDVETFQRAKRVNPFGYLAKPVAADTLHRSIEMAIHKKKLEEGHHHHHH | not failed
MSLTLDELDSHLFKCADIIRDAVDPTDYKEYILPLVFYKAISDEYEQEREEIVEEYGEDFADNANLYDVPIVPEGHRWNDLRQESENVDEAINNAFTEFTQANPDLSGIFNANFMEAGGLTDDRLIKLVEHLSTYDLDRDSVPPDMLGEAYMDLVRHFAEEEGKSGGQFFTPPHIVQLCVRLVDDFADGMTFHDPTVGSGGMLTEAAKYYREAQGGDPSKLTFTGQEINPDIAAIARMNLSLHTLNGEIERGDSLASPGFTDGDDLERFDRVLANFPFSADWAKDDLQDDQYGRFDWHTKLPRADRGDYAFIMHIAEQLKEPDCGDESGGKAAIVIPHGVLFRKHEQRYRQPMLENDLVEAIVGLPENLFQNNSIPSAILVLNTDKPADREGEVQFIHAADEAFYEELSNQNELTDDGLDHIVENFDDWTTEERVSRTVGIEEIEENDFNLNIALYVDTTEPEEDIDVNEELAELRELQAEREEIESRMTEHMEALQYE | failed
MSLTQAQGAQQYVNINPPMPSDTPGKIEVLEFFAYTCPHCAAIEPMVEDWAKTAPQDVVLKQVPIAFNAGMKPLQQLYYTLQALERPDLHPKVFTAIHTERKRLFDKKAMGEWAASQGVDRAKFDSVFDSFSVQTQVQRASQLAEAAHIDGTPAFAVGGRYMTSPVLAGNDYAGALKVVDQLIVQSREGHHHHHH | not failed
MSLTQIVNPIIYPSRTIPRRFTAISPFKTLSPQFSRHPPHALSRRLFLPSVSSIWDAITGGGDSNPREAIAAVRRGMQLFRQGDVAGSVAEFDRAIILDPRQKAYLWQRGLSLYYVDRFEEGAEQFRIDVAQNPNDTEESIWCFICEARLHGVDVARTQFLEVGRDSRPVMREAYNLFKNGGDPEKLVNDFSSGQASEYFYASLYAGLYYEAEGKSENAKFHLTAACGSPYGQRSDDYMASLAKVHCLCRNWSSGIL | failed
MSLTVKDILDAIQSPDSTPADIAALPLPESYRAITVHKDETEMFAGLETRDKDPRKSIHLDDVPVPELGPGEALVAVMASSVNYNSVWTSIFEPLSTFGFLERYGRVSDLAKRHDLPYHVIGSDLAGVVLRTGPGVNAWQAGDEVVAHCLSVELESSDGHNDTMLDPEQRIWGFETNFGGLAEIALVKSNQLMPKPDHLSWEEAAAPGLVNSTAYRQLVSRNGAGMKQGDNVLIWGASGGLGSYATQFALAGGANPICVVSSPQKAEICRAMGAEAIIDRNAEGYRFWKDENTQDPKEWKRFGKRIRELTGGEDIDIVFEHPGRETFGASVFVTRKGGTITTCASTSGYMHEYDNRYLWMSLKRIIGSHFANYREAWEANRLIAKGRIHPTLSKVYSLEDTGQAAYDVHRNLHQGKVGVLCLAPEEGLGVRDREKRAQHLDAINRFRNEGHHHHHH | not failed
